Source: publication PMC3825537

Biological target: monomeric photosystem II complex (His-tagged PsbE) (Nicotiana tabacum | Nicotiana tabacum (endogenous in leaves)) (UniProt P69384)
Test: native gel or EMSA; BN-PAGE (3-12 % gradient, 205 V, 5 h, 4 °C) of PSII purified by protocol A

- stoichiometry N: 2
Substance: monomeric photosystem II complex (His-tagged PsbE) (from UniProt P69384 1-83; P69556 1-344)
